Residue numbers refer to the chain shown, from its start. Names may count otherwise. “Also recorded” adds a separate entry of the source.
What was measured:
[1] = wild type protein; in words; cited from earlier work
colicin E7 = target: T1, colicin E7 (Escherichia coli, UniProt Q47112); settings: in words; listed as Im7; cited from earlier work
T1 sequence (Q47112 1-576): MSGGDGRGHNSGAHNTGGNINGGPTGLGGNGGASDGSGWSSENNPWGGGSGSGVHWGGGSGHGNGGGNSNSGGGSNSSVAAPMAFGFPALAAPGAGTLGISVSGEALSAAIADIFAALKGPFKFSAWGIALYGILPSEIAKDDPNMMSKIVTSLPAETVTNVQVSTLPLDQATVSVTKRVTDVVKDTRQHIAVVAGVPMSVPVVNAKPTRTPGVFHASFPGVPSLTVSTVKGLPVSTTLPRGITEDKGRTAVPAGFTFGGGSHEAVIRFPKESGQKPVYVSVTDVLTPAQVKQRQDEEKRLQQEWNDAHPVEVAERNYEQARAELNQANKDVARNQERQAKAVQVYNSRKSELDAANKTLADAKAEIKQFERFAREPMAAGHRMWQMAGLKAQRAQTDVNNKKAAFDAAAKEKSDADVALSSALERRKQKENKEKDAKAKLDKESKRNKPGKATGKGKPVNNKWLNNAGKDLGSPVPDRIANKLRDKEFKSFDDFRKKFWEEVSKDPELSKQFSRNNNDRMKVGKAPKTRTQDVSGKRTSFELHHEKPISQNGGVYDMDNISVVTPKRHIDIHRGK

[2] = Equilibrium unfolding experiments (urea denaturation, folding free energy); format: physicochemical
Method: Proteins were dissolved to a concentration of approximately 100 μM in 50 mM Tris-Cl buffer at pH 7.5, containing 400 mM Na2SO4. Substocks of each mutant were made up in the same buffer containing 0, 2, 4, 6 and 8 M urea. These substocks were titrated into a black polypropylene 384 well microtitre plate (Greiner) to create eight replicates of a urea titration from 0 to 8 M urea in steps of 0.2 M urea, using a Hamilton Microlab Star robot. The plates were briefly centrifuged and incubated at 37° C. for one hour to allow the unfolding reaction to come to equilibrium. The tryptophan fluorescence of each sample was measured using a PerkinElmer EnVision platereader. The excitation wavelength was 280 nm and emission was measured using a 340-350 nm filter. Data were normalized and processed using Igor Pro (Wavemetrics). The entire dataset was fitted globally to a two-state equilibrium unfolding equation and the ΔG values for each Im7 variant were compared to that of the wildtype protein under identical conditions. ΔΔGUN=ΔGUN(mutant)−ΔGUN(wildtype)

B1: G-CSF: granulocyte-colony stimulating factor, sold under the trademark names Neopogen and Neulasta (protein, UniProt P09919 31-207, looked up)
Granulocyte …: TPLGPASSLPQSFLLKCLEQVRKIQGDGAALQEKLVSECATYKLCHPEELVLLGHSLGIPWAPLSSCPSQALQLAGCLSQLHSGLFLYQGLLQALEGISPELGPTLDTLQLDVADFATTIWQQMEELGMAPALQPTQGAMPAFASAFQRRAGGVLVASHLQSFLEVSYRVLRHLAQP
- tendency to aggregate [1]: high tendency to aggregate

B2: Wildtype Im7: small helical protein that confers immunity to bacterial colicin E7 (protein)
chain: MELKNSISDYTEAEFVQLLKEIEKENVAATDDVLDVLLEHFVKITEHPDGTDLIYYPSDNRDDSPEGIVKEIKEWRAANGKPGFKQG
- affinity for colicin E7 (colicin E7): binds very tightly; also recorded: picomolar affinity

B3: N26K: Im7 variant more stable than Im7 wt, in Kan55-Im7 (protein)
chain: B2 chain with N26K
- stability of Im7 variant relative to Im7 wt [2]: more stable

Reference: patent publication US8986997B2, “Methods and compositions for increasing biological molecule stability” (The Regents of the University of Michigan, priority 2007, dated 2015)
